Reference: patent publication US8986682B2, “Method to increase the absorption of unsaturated fatty acids by human infants” (Swedish Orphan Biovitrum AB (publ), priority 2010, dated 2015)
Like-named read-outs stand apart in the source and are kept apart here.

Tests used:
patients = conditions: cited from earlier work
[1] = Specific activity with PNPB substrate, sodium cholate as bile-salt activator; type: biochemical; conditions: 20 mM sodium cholate activation solution, 27° C., after HA-HPLC and SE-HPLC purification
Experimental: Differences in functional properties are observed between rhBSSL-CHO and BSSL-MAM and from rhBSSL-OVI. The specific activity of rhBSSL-CHO is observed to be higher than that of the other forms of BSSL. The specific activities of BSSL-MAM and rhBSSL-OVI are only 80% of that of rhBSSL-CHO based on mass. Each sample is specifically purified by HA-HPLC and SE-HPLC before determination of specific activity. Specific activity is determined using 4-nitrophenyl ester butyric acid (PNPB) as a substrate for BSSL, and detection of the release of 4-nitrophenol. Briefly, a dilution series of rhBSSL (for example, from 20 to 160 ng activity/mL) is prepared in PBS with 0.1% BSA. 200 μl of these rhBSSL solutions is added to 25 μl of an activation solution containing 20 mM sodium cholate (as bile-salt activator) in PBS with 0.1% BSA. These solutions are preincubated in a spectrophotometer at 27° C. for 5 minutes. Just before measuring, 25 μl of a well-mixed substrate solution containing 5 mM PNPB in PBS-Tween is added. The formation of 4-nitrophenol can be detected by its absorbance at 400 nm and the increase in absorbance is measured during 90 seconds. The active amount of BSSL is determined using a standard curve of an rhBSSL reference standard.

kittens = conditions: 0.1 mg/mL in kitten-formula mixed with cow milk, 5 days; cited from earlier work
[2] = tested on: CF patients (aged 12 to 39 years) with PI; conditions: single dosing of 0.2 g or 1 g as complement to 25% of regular Creon dosing; cited from earlier work

For “agalsidase alfa: recombinant human alpha-galactosidase A produced in a continuous line of human fibroblasts”, the “Patients with presence of IgG” value (patients; in vivo) is listed as 55%.

In the case of “agalsidase beta: recombinant human alpha-galactosidase A produced in CHO cells”, the “Patients with presence of IgG” value (patients; treated patients) is given as “almost all patients”.

B1: BSSL-MAM: native human milk bile-salt-stimulated lipase (protein, UniProt P19835 21-753, looked up)
Bile salt-activated lipase: AKLGAVYTEGGFVEGVNKKLGLLGDSVDIFKGIPFAAPTKALENPQPHPGWQGTLKAKNFKKRCLQATITQDSTYGDEDCLYLNIWVPQGRKQVSRDLPVMIWIYGGAFLMGSGHGANFLNNYLYDGEEIATRGNVIVVTFNYRVGPLGFLSTGDANLPGNYGLRDQHMAIAWVKRNIAAFGGDPNNITLFGESAGGASVSLQTLSPYNKGLIRRAISQSGVALSPWVIQKNPLFWAKKVAEKVGCPVGDAARMAQCLKVTDPRALTLAYKVPLAGLEYPMLHYVGFVPVIDGDFIPADPINLYANAADIDYIAGTNNMDGHIFASIDMPAINKGNKKVTEEDFYKLVSEFTITKGLRGAKTTFDVYTESWAQDPSQENKKKTVVDFETDVLFLVPTEIALAQHRANAKSAKTYAYLFSHPSRMPVYPKWVGADHADDIQYVFGKPFATPTGYRPQDRTVSKAMIAYWTNFAKTGDPNMGDSAVPTHWEPYTTENSGYLEITKKMGSSSMKRSLRTNFLRYWTLTYLALPTVTDQEATPVPPTGDSEATPVPPTGDSETAPVPPTGDSGAPPVPPTGDSGAPPVPPTGDSGAPPVPPTGDSGAPPVPPTGDSGAPPVPPTGDSGAPPVPPTGDSGAPPVPPTGDSGAPPVPPTGDAGPPPVPPTGDSGAPPVPPTGDSGAPPVTPTGDSETAPVPPTGDSGAPPVPPTGDSEAAPVPPTDDSKEAQMPAVIRF
For B1, the “Specific activity relative to that of rhBSSL-CHO, based on mass” value [1] is listed as 80% and the “Growth rate versus kittens fed formula alone” value (kittens) is listed as “twice”.

B2: rhBSSL-OVI: recombinant human BSSL produced in / isolated from the milk of transgenic sheep (protein, UniProt P19835 21-753, looked up)
Bile salt-activated lipase: AKLGAVYTEGGFVEGVNKKLGLLGDSVDIFKGIPFAAPTKALENPQPHPGWQGTLKAKNFKKRCLQATITQDSTYGDEDCLYLNIWVPQGRKQVSRDLPVMIWIYGGAFLMGSGHGANFLNNYLYDGEEIATRGNVIVVTFNYRVGPLGFLSTGDANLPGNYGLRDQHMAIAWVKRNIAAFGGDPNNITLFGESAGGASVSLQTLSPYNKGLIRRAISQSGVALSPWVIQKNPLFWAKKVAEKVGCPVGDAARMAQCLKVTDPRALTLAYKVPLAGLEYPMLHYVGFVPVIDGDFIPADPINLYANAADIDYIAGTNNMDGHIFASIDMPAINKGNKKVTEEDFYKLVSEFTITKGLRGAKTTFDVYTESWAQDPSQENKKKTVVDFETDVLFLVPTEIALAQHRANAKSAKTYAYLFSHPSRMPVYPKWVGADHADDIQYVFGKPFATPTGYRPQDRTVSKAMIAYWTNFAKTGDPNMGDSAVPTHWEPYTTENSGYLEITKKMGSSSMKRSLRTNFLRYWTLTYLALPTVTDQEATPVPPTGDSEATPVPPTGDSETAPVPPTGDSGAPPVPPTGDSGAPPVPPTGDSGAPPVPPTGDSGAPPVPPTGDSGAPPVPPTGDSGAPPVPPTGDSGAPPVPPTGDSGAPPVPPTGDAGPPPVPPTGDSGAPPVPPTGDSGAPPVTPTGDSETAPVPPTGDSGAPPVPPTGDSEAAPVPPTDDSKEAQMPAVIRF
modifications: produced in transgenic sheep milk
In the case of B2, the “Specific activity relative to that of rhBSSL-CHO, based on mass” value [1] is listed as 80% and the “Lipid uptake versus Creon alone” value [2] is listed as “more rapid and efficient lipid uptake”.
